Residue numbers refer to the chain shown, from its start. Numbers in names are those of the source.

To fix the notation:
B1: C. elegans ferritin FTN-2, recombinant, untagged, wild type (natural protein, UniProt Q9TYS3 1-170, looked up)
chain: MSLARQNYHSEVEAAVNKQINIELYASYVYLSMSFYFDRDDVALPNIAKFFKEQSDEEREHATELMRVQNLRGGRVVLQDIQKPENDEWGTALKAFEAALALEKFNNESLLKLHSTAGNHNDAHLTDFIEEKYLDEQVKSINEFARMVANLKRVGPGVGEYVFDKEHFSD
notes: FTN-2, C. elegans ferritin; ORF amplified from C. elegans cDNA and cloned between NcoI and NotI of pET28a; expressed without a tag; also called FTN-2 wt; source: E. coli BL21-CodonPlus (DE3)-RIPL, purified (heat step, acid precipitation, cation exchange)
B2: C. elegans ferritin FTN-2 E58K/H61G (FeOx-mut), recombinant, untagged (natural protein, UniProt Q9TYS3 1-170, looked up)
chain: B1 chain with E58K, H61G
notes: FTN-2, C. elegans ferritin; ORF in pET28a with the E58K/H61G double mutation made by site-directed mutagenesis; expressed without a tag; also called FTN-2 FeOx-mut; E58K/H61G-mutated FTN-2; source: E. coli BL21-CodonPlus (DE3)-RIPL, purified (heat step, acid precipitation, cation exchange)
B3: C. elegans ferritin FTN-1, recombinant, untagged, wild type (natural protein, UniProt O16453 1-170, looked up)
chain: MSLARQNYHDEVEAAVNKQINVELYASYVYLSMSAHFDRDDIALRNIAKFFKEQSDEERGHATELMRIQAVRGGRVAMQNIQKPEKDEWGTVLEAFEAALALERANNASLLKLHGIAEQRNDAHLTNYIQEKYLEEQVHSINEFARYIANIKRAGPGLGEYLFDKEEFSD
notes: FTN-1, C. elegans ferritin; ORF amplified from C. elegans cDNA and cloned between NcoI and NotI of pET28a; expressed without a tag; also called FTN-1 wt; source: E. coli BL21-CodonPlus (DE3)-RIPL, purified (heat step, acid precipitation, cation exchange)
B4: C. elegans ferritin FTN-1 E58K/H61G (FeOx-mut), recombinant, untagged (natural protein, UniProt O16453 1-170, looked up)
chain: B3 chain with E58K, H61G
notes: FTN-1, C. elegans ferritin; ORF in pET28a with the E58K/H61G double mutation made by site-directed mutagenesis; expressed without a tag; also called FTN-1 FeOx-mut; E58K/H61G-mutated FTN-1; source: E. coli BL21-CodonPlus (DE3)-RIPL, purified (heat step, acid precipitation, cation exchange)

This series deals with the molecule itself. As to the kind of experiment: native gel or EMSA; recombinant FTN variants (2 µg) resolved on a 4–16% gradient NativePAGE Bis-Tris gel, Coomassie Blue stained; NativeMark standard for the size of complexes; self-assembly into high molecular weight complexes. (In EMSA bound probe runs differently from free probe, usually more slowly.)
With B1, the binding result is “binds”.

As to B2, the binding result is “binds”.

Turning to B3, the binding result is “binds”.

B4: the binding result is “binds”.

The values are drawn from article PMC9391379, “Ferritin-mediated iron detoxification promotes hypothermia survival in Caenorhabditis elegans and murine neurons” (Nature Communications, 2022).
